The supplement of paper PMC9112550, “Optimization of the antimicrobial peptide Bac7 by deep mutational scanning” (BMC Biology, 2022)

System: Escherichia coli TOP10
Test: shrunken log2 fold change of peptide-encoding DNA abundance (4.5 h post-induction vs induction); higher = less antimicrobial activity (less host growth inhibition)
Conditions: time post-induction: 4.5 h; library: site-saturation at positions 5, 18, 19, 20
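Note: peptides expressed intracellularly from a pBAD plasmid library in pooled LB shake-flask culture, induced with 0.3% L-arabinose, DNA abundance read by NGS, three biological replicates, DESeq2 with apeglm shrinkage.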

| Sequence | shrunken log2 fold change |
| --- | --- |
| RRIRPRPPRLPRPRPRPPGTPRP | 0.317 |
| RRIRWRPPRLPRPRPRPHEIPRP | 0.0984 |
| RRIRQRPPRLPRPRPRPPTFPRP | 0.0128 |
| RRIRNRPPRLPRPRPRPREAPRP | 0.00436 |
| RRIRNRPPRLPRPRPRPFDVPRP | -0.0429 |
| RRIRIRPPRLPRPRPRPYKGPRP | -0.018 |
| RRIRRRPPRLPRPRPRPQLSPRP | 0.976 |
| RRIRIRPPRLPRPRPRPFQFPRP | -0.237 |
| RRIRRRPPRLPRPRPRPKPQPRP | 0.403 |
| RRIRGRPPRLPRPRPRPSFYPRP | 0.00205 |
| RRIRHRPPRLPRPRPRPPIQPRP | 0.0855 |
| RRIRVRPPRLPRPRPRPVPAPRP | 0.391 |
| RRIRARPPRLPRPRPRPWFTPRP | -0.316 |
| RRIRGRPPRLPRPRPRPIWGPRP | 0.128 |
| RRIRERPPRLPRPRPRPFFEPRP | -0.0766 |
| RRIRNRPPRLPRPRPRPPLQPRP | 0.213 |
| RRIRERPPRLPRPRPRPIQCPRP | 0.0885 |
| RRIRQRPPRLPRPRPRPPTIPRP | 2.14 |
| RRIRCRPPRLPRPRPRPMCDPRP | 0.128 |
| RRIRFRPPRLPRPRPRPQALPRP | -0.137 |
| RRIRLRPPRLPRPRPRPHYVPRP | -0.169 |
| RRIRMRPPRLPRPRPRPKSWPRP | 1.11 |
| RRIRERPPRLPRPRPRPFDKPRP | -1.7 |
| RRIRRRPPRLPRPRPRPPWDPRP | 0.577 |
| RRIRIRPPRLPRPRPRPWPPPRP | 0.0965 |

| Sequence | shrunken log2 fold change |
| --- | --- |
| RRIRMRPPRLPRPRPRPFHGPRP | -0.128 |
| RRIRWRPPRLPRPRPRPCKRPRP | 0.118 |
| RRIRLRPPRLPRPRPRPQHIPRP | -0.812 |
| RRIRARPPRLPRPRPRPIRMPRP | 0.183 |
| RRIRPRPPRLPRPRPRPKGCPRP | 0.394 |
| RRIRHRPPRLPRPRPRPPHKPRP | 0.0336 |
| RRIRYRPPRLPRPRPRPIPEPRP | 0.0704 |
| RRIRGRPPRLPRPRPRPLIGPRP | 0.561 |
| RRIRWRPPRLPRPRPRPPRLPRP | 0.526 |
| RRIRLRPPRLPRPRPRPFTDPRP | -0.317 |
| RRIRPRPPRLPRPRPRPMHTPRP | -0.0538 |
| RRIRRRPPRLPRPRPRPKGFPRP | -0.12 |
| RRIRNRPPRLPRPRPRPAMLPRP | -0.145 |
| RRIRCRPPRLPRPRPRPYMGPRP | -0.017 |
| RRIRKRPPRLPRPRPRPIWGPRP | -0.0432 |
| RRIRPRPPRLPRPRPRPQWTPRP | -0.0535 |
| RRIRWRPPRLPRPRPRPKMLPRP | 0.149 |
| RRIRLRPPRLPRPRPRPVRYPRP | -0.162 |
| RRIRHRPPRLPRPRPRPLNHPRP | -0.785 |
| RRIRWRPPRLPRPRPRPKDYPRP | 0.0778 |
| RRIRLRPPRLPRPRPRPFFCPRP | -0.0304 |
| RRIRHRPPRLPRPRPRPSSQPRP | -0.152 |
| RRIRYRPPRLPRPRPRPNPKPRP | -0.0294 |
| RRIRCRPPRLPRPRPRPVKHPRP | -0.263 |
| RRIRSRPPRLPRPRPRPNKLPRP | -0.643 |

| Sequence | shrunken log2 fold change |
| --- | --- |
| RRIRYRPPRLPRPRPRPVVFPRP | -0.747 |
| RRIRTRPPRLPRPRPRPPDMPRP | -0.142 |
| RRIRVRPPRLPRPRPRPQGDPRP | -0.0558 |
| RRIRGRPPRLPRPRPRPKFQPRP | 0.528 |
| RRIRIRPPRLPRPRPRPRQWPRP | 0.159 |
| RRIRDRPPRLPRPRPRPYIWPRP | -0.373 |
| RRIRHRPPRLPRPRPRPFDSPRP | -0.00149 |
| RRIRRRPPRLPRPRPRPEPYPRP | 0.0302 |
| RRIRERPPRLPRPRPRPVWAPRP | 0.0658 |
| RRIRFRPPRLPRPRPRPCAHPRP | -0.197 |
| RRIRTRPPRLPRPRPRPSTLPRP | -0.853 |
| RRIRWRPPRLPRPRPRPKFEPRP | 0.2 |
| RRIRGRPPRLPRPRPRPEPEPRP | 1.51 |
| RRIRNRPPRLPRPRPRPNTQPRP | -0.148 |
| RRIRMRPPRLPRPRPRPPTDPRP | 1.21 |
| RRIRCRPPRLPRPRPRPHACPRP | -0.281 |
| RRIRMRPPRLPRPRPRPHEPPRP | -0.0151 |
| RRIRNRPPRLPRPRPRPIDLPRP | -0.0431 |
| RRIRCRPPRLPRPRPRPAATPRP | 0.776 |
| RRIRIRPPRLPRPRPRPTVHPRP | 0.0548 |
| RRIRIRPPRLPRPRPRPQVIPRP | -0.0417 |
| RRIRFRPPRLPRPRPRPTAEPRP | 0.593 |
| RRIRMRPPRLPRPRPRPIKHPRP | -0.0825 |
| RRIRMRPPRLPRPRPRPIMKPRP | -0.24 |
| RRIRLRPPRLPRPRPRPMRIPRP | 0.269 |

| Sequence | shrunken log2 fold change |
| --- | --- |
| RRIRNRPPRLPRPRPRPETPPRP | 0.36 |
| RRIRDRPPRLPRPRPRPKIDPRP | 0.0277 |
| RRIRSRPPRLPRPRPRPNCKPRP | -0.228 |
| RRIRQRPPRLPRPRPRPYDNPRP | -0.0495 |
| RRIRQRPPRLPRPRPRPWADPRP | 0.00911 |
| RRIRERPPRLPRPRPRPEQNPRP | 0.139 |
| RRIRPRPPRLPRPRPRPSDWPRP | 0.248 |
| RRIRDRPPRLPRPRPRPFPQPRP | 0.0191 |
| RRIRMRPPRLPRPRPRPGNKPRP | -0.0821 |
| RRIRDRPPRLPRPRPRPDRAPRP | 0.281 |
| RRIRERPPRLPRPRPRPHYWPRP | -0.353 |
| RRIRTRPPRLPRPRPRPIKHPRP | -0.454 |
| RRIRERPPRLPRPRPRPWDSPRP | 0.0192 |
| RRIRKRPPRLPRPRPRPDDVPRP | 2.03 |
| RRIRARPPRLPRPRPRPVERPRP | 0.732 |
| RRIRVRPPRLPRPRPRPAPPPRP | 0.577 |
| RRIRRRPPRLPRPRPRPTEQPRP | -0.0468 |
| RRIRHRPPRLPRPRPRPNLNPRP | -0.786 |
| RRIRYRPPRLPRPRPRPGEAPRP | 0.124 |
| RRIRQRPPRLPRPRPRPHDSPRP | -0.0135 |
| RRIRHRPPRLPRPRPRPQSQPRP | -0.127 |
| RRIRLRPPRLPRPRPRPCDAPRP | -0.105 |
| RRIRIRPPRLPRPRPRPQLLPRP | -0.0818 |
| RRIRQRPPRLPRPRPRPPWTPRP | 0.0238 |
| RRIRHRPPRLPRPRPRPKQYPRP | -0.439 |

| Sequence | shrunken log2 fold change |
| --- | --- |
| RRIRVRPPRLPRPRPRPLMYPRP | -0.564 |
| RRIRHRPPRLPRPRPRPNHEPRP | -0.493 |
| RRIRARPPRLPRPRPRPKATPRP | 0.347 |
| RRIRKRPPRLPRPRPRPHQIPRP | 0.0638 |
| RRIRERPPRLPRPRPRPTIQPRP | -0.0576 |
| RRIRFRPPRLPRPRPRPFKWPRP | -0.269 |
| RRIRHRPPRLPRPRPRPYAFPRP | 0.0613 |
| RRIRYRPPRLPRPRPRPDHMPRP | -0.552 |
| RRIRVRPPRLPRPRPRPKSDPRP | -0.142 |
| RRIRLRPPRLPRPRPRPFKTPRP | -0.501 |
| RRIRNRPPRLPRPRPRPFWNPRP | -0.151 |
| RRIRVRPPRLPRPRPRPFATPRP | 0.276 |
| RRIRDRPPRLPRPRPRPIHKPRP | -0.275 |
| RRIRWRPPRLPRPRPRPQIRPRP | -0.0767 |
| RRIRIRPPRLPRPRPRPSMHPRP | -0.511 |
| RRIRTRPPRLPRPRPRPQTHPRP | -0.322 |
| RRIRSRPPRLPRPRPRPAPAPRP | 0.741 |
| RRIRCRPPRLPRPRPRPAAAPRP | 0.528 |
| RRIRLRPPRLPRPRPRPKPDPRP | 0.315 |
| RRIRGRPPRLPRPRPRPTWMPRP | 0.599 |
| RRIRNRPPRLPRPRPRPTYCPRP | -0.276 |
| RRIRFRPPRLPRPRPRPRSEPRP | 0.11 |
| RRIRNRPPRLPRPRPRPPDEPRP | 1.28 |
| RRIRDRPPRLPRPRPRPNYDPRP | -0.211 |
| RRIRNRPPRLPRPRPRPWQDPRP | -0.112 |

| Sequence | shrunken log2 fold change |
| --- | --- |
| RRIRRRPPRLPRPRPRPVLPPRP | 0.584 |
| RRIRARPPRLPRPRPRPMMTPRP | 0.331 |
| RRIRPRPPRLPRPRPRPYARPRP | -0.0595 |
| RRIRFRPPRLPRPRPRPMSQPRP | 0.0397 |
| RRIRYRPPRLPRPRPRPELMPRP | -0.128 |
| RRIRKRPPRLPRPRPRPVFVPRP | 0.141 |
| RRIRARPPRLPRPRPRPYKNPRP | -0.524 |
| RRIRCRPPRLPRPRPRPATSPRP | 0.0157 |
| RRIRIRPPRLPRPRPRPSTVPRP | -0.566 |
| RRIRHRPPRLPRPRPRPGDHPRP | -0.00776 |
| RRIRTRPPRLPRPRPRPICFPRP | -0.583 |
| RRIRQRPPRLPRPRPRPMDYPRP | -0.0062 |
| RRIRVRPPRLPRPRPRPFMDPRP | -0.36 |
| RRIRQRPPRLPRPRPRPSWWPRP | -0.176 |
| RRIRMRPPRLPRPRPRPLIRPRP | -0.373 |
| RRIRTRPPRLPRPRPRPSVIPRP | -0.268 |
| RRIRERPPRLPRPRPRPVNIPRP | -0.0402 |
| RRIRRRPPRLPRPRPRPETFPRP | -0.0525 |
| RRIRKRPPRLPRPRPRPCRYPRP | -0.00884 |
| RRIRFRPPRLPRPRPRPQTIPRP | -0.485 |
| RRIRARPPRLPRPRPRPHMGPRP | 0.0766 |
| RRIRVRPPRLPRPRPRPGRFPRP | 0.277 |
| RRIRPRPPRLPRPRPRPNTCPRP | -0.00653 |
| RRIRIRPPRLPRPRPRPASQPRP | -0.073 |
| RRIRQRPPRLPRPRPRPLEEPRP | 0.275 |
